Key:
[1] = biological target: PD-L1 on CHO-K1/PD-L1/alphaAPC stimulator cells (UniProt Q9NZQ7 19-290, limits assumed); test: cell-based or functional assay
human PD-L1 (hPD-L1) = biological target: T1, human PD-L1 (hPD-L1) (human, UniProt Q9NZQ7 19-290); test: flow cytometry on JIMT-1 cells expressing endogenous human PD-L1; anti-human IgG Fc secondary; geometric MFI
T1 construct: Endogenous hPD-L1 on JIMT1 (JIMT-1) cells; also called programmed death-ligand 1; CD274
Procedure: Binding of the binding agents of an embodiment of the invention to human PD-L1 (hPD-L1) on cell surfaces was assessed by incubating the binding agents with JIMT1 cells that express endogenous hPD-L1. Briefly, the binding agents were diluted serially in FACS buffer (PBS+1% FBS+5 mM EDTA, pH 7.4) at 4° C. Diluted binding agents were applied to JIMT1 cells (˜1×10⁵-2×10⁵ per well) and incubated at 4° C. […] After unbound secondary antibody was washed out, cells were resuspended in FACS buffer plus 2% formaldehyde and analyzed by flow cytometry. The intensity of fluorescence, expressed as geometric mean fluorescence intensity, was used to determine anti-PDL1 binding agent binding to hPD-L1 on cell surface.

Chain of PD-L1 on CHO-K1/PD-L1/alphaAPC stimulator cells (Q9NZQ7 19-290 limits assumed): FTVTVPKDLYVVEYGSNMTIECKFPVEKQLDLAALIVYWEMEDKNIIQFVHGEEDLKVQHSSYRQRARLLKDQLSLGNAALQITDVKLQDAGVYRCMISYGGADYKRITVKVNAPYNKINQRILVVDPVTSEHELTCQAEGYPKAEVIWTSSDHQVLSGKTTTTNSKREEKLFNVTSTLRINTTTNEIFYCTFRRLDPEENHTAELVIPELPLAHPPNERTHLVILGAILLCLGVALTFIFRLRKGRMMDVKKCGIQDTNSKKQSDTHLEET
T1 sequence (Q9NZQ7 19-290 limits assumed): as above

Row | Binder | EC50 (nM), PD-L1/PD-1 blockade, luciferase reporter cells [1] | EC50 (ng/ml), PD-L1/PD-1 blockade, luciferase reporter cells [1] | binding result (human PD-L1 (hPD-L1))
1 | PD-L1 binding agent 10 (antibody, V domains shown) VH: QVQLVQSGAEVKKPGASVKVSCKASGYTFTGYYMHWVRQAPGQGLEWIGWMSLNSGLTGYAQKFQGRVTMTRDTSTSTVYMELSSLRSEDTAVYYCARDRGWFDPWGQGTLVTVSS VL: DIQMTQSPSSLSASVGDRVTITCRASQSISSWLAWYQQKPGKAPKLLIYAASTLESGVPSRFSGSGSGTDFTLTISSLQPEDFATYYCQQSYTTPYSFGGGTKVEIK | 2.02 nM | 291 ng/mL | 
2 | 5 (antibody, V domains shown) VH: QVQLVQSGAEVKKPGASVKVSCKASGYTFNRFMHWVRQAPGQGLEWMGWMSLNSGLTGYAQKFQGRVTMTRDTSTSTVYMELSSLRSEDTAVYYCTRGTYNDAFDIWGQGTLVTVSS VL: DIQMTQSPSSLSASVGDRVTITCRASQTISNYLNWYQQKPGKAPKLLIYAASSLQSGVPSRFSGSGSGTDFTLTISSLQPEDFATYYCQQSYTTPITFGGGTKVEIK |  |  | binds
3 | 6 (antibody, V domains shown) VH: QVQLVQSGAEVKKPGASVKVSCKASGYTFTSYYIHWVRQAPGQGLEWMGWMKPSSGTTGYAQKFQGRVTMTRDTSTSTVYMELSSLRSEDTAVYYCAREQWLVNDAFDIWGQGTLVTVSS VL: EIVMTQSPATLSVSPGERATLSCRASQSVDRNYVTWYQQKPGQAPRLLIYGASTRATGIPARFSGSGSGTEFTLTISSLQSEDFAVYYCQQSYTTPYTFGQGTKVEIK |  |  | binds

Now from value to binder:

Row | EC50 (nM), PD-L1/PD-1 blockade, luciferase reporter cells [1] | EC50 (ng/ml), PD-L1/PD-1 blockade, luciferase reporter cells [1] | binding result (human PD-L1 (hPD-L1)) | Binder
4 | 0.9 nM | 129 ng/mL |  | PD-L1 binding agent 21 (antibody, V domains shown) VH: QVQLVQSGAEVKKPGASVKVSCKASGYTFTSHYMHWVRQAPGQGLEWMGWMNPNSGHTGNAQKFQGRVTMTRDTSTSTVYMELSSLRSEDTAVYYCARGNWVDAFDIWGQGTMVTVSS VL: DIQMTQSPSSLSASVGDRVTITCRASQGIRNDLAWYQQKPGKAPKLLIYAASTLQSGVPSRFSGSGSGTDFTLTISSLQPEDFATYYCQQSYSTPLTFGGGTKVEIK
5 |  |  | binds | 70 (antibody, V domains shown) VH: QVQLVQSGAEVKKPGASVKVSCKASGYTFTDHYLHWVRQAPGQGLEWMGWINPNIGNTGYAQKFQGRVTMTRDTSTSTVYMELSSLRSEDTAVYYCAREPLQLGGFDYWGQGTLVTVSS VL: DIQMTQSPSSLSASVGDRVTITCRASESISSWLAWYQQKPGKAPKLLIYAASSLQSGVPSRFSGSGSGTDFTLTISSLQPEDFATYYCQQSYSTPLTFGQGTKLEIK

From patent publication US20230086603A1 (BOLT BIOTHERAPEUTICS, published 2023)
